These sequences were tested on Escherichia coli TOP10 (assay: shrunken log2 fold change of peptide-encoding DNA abundance (4.5 h post-induction vs induction); higher = less antimicrobial activity (less host growth inhibition)). Settings: time post-induction: 4.5 h; library: site-saturation at positions 5, 18, 19, 20.
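Note: peptides expressed intracellularly from a pBAD plasmid library in pooled LB shake-flask culture, induced with 0.3% L-arabinose, DNA abundance read by NGS, three biological replicates, DESeq2 with apeglm shrinkage.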

| Sequence | shrunken log2 fold change |
| --- | --- |
| RRIRLRPPRLPRPRPRPIGHPRP | -0.212 |
| RRIRERPPRLPRPRPRPHMYPRP | -0.577 |
| RRIRDRPPRLPRPRPRPMMLPRP | -0.0234 |
| RRIRRRPPRLPRPRPRPPNLPRP | 0.593 |
| RRIRNRPPRLPRPRPRPQKYPRP | 0.125 |
| RRIRSRPPRLPRPRPRPFTIPRP | -0.0987 |
| RRIRPRPPRLPRPRPRPRWDPRP | -0.0161 |
| RRIRHRPPRLPRPRPRPLKYPRP | -0.345 |
| RRIRMRPPRLPRPRPRPNAYPRP | 0.311 |
| RRIRTRPPRLPRPRPRPMCLPRP | 0.0631 |
| RRIRARPPRLPRPRPRPTWWPRP | 0.568 |
| RRIRYRPPRLPRPRPRPKPPPRP | 0.524 |
| RRIRQRPPRLPRPRPRPAICPRP | -0.0709 |
| RRIRARPPRLPRPRPRPVELPRP | 0.0828 |
| RRIRMRPPRLPRPRPRPDWGPRP | 0.0473 |
| RRIRLRPPRLPRPRPRPANQPRP | 0.137 |
| RRIRFRPPRLPRPRPRPWYRPRP | -0.0778 |
| RRIRCRPPRLPRPRPRPKEPPRP | 0.302 |
| RRIRGRPPRLPRPRPRPDWMPRP | 0.235 |
| RRIRPRPPRLPRPRPRPHFNPRP | -0.433 |
| RRIRQRPPRLPRPRPRPVHIPRP | -0.1 |
| RRIRTRPPRLPRPRPRPAWLPRP | -0.0636 |
| RRIRGRPPRLPRPRPRPVCGPRP | 0.866 |
| RRIRLRPPRLPRPRPRPGITPRP | -0.322 |
| RRIRHRPPRLPRPRPRPPINPRP | -0.294 |

| Sequence | shrunken log2 fold change |
| --- | --- |
| RRIRNRPPRLPRPRPRPIAYPRP | -0.0604 |
| RRIRERPPRLPRPRPRPEGDPRP | 0.0441 |
| RRIRIRPPRLPRPRPRPYRNPRP | -0.0378 |
| RRIRRRPPRLPRPRPRPYEIPRP | -0.39 |
| RRIRNRPPRLPRPRPRPLPAPRP | 1.07 |
| RRIRHRPPRLPRPRPRPRRGPRP | 0.343 |
| RRIRFRPPRLPRPRPRPFWLPRP | 0.0058 |
| RRIRCRPPRLPRPRPRPMHSPRP | -0.0254 |
| RRIRGRPPRLPRPRPRPTQAPRP | 1.37 |
| RRIRDRPPRLPRPRPRPLPCPRP | 0.0544 |
| RRIRFRPPRLPRPRPRPQNHPRP | -0.619 |
| RRIRFRPPRLPRPRPRPSQHPRP | -0.612 |
| RRIRQRPPRLPRPRPRPIFTPRP | -0.123 |
| RRIRHRPPRLPRPRPRPSIKPRP | -0.501 |
| RRIRDRPPRLPRPRPRPSVMPRP | 0.198 |
| RRIRGRPPRLPRPRPRPEVWPRP | 1.58 |
| RRIRHRPPRLPRPRPRPQYDPRP | -1.12 |
| RRIRIRPPRLPRPRPRPQNRPRP | -0.386 |
| RRIRRRPPRLPRPRPRPWLLPRP | 0.0822 |
| RRIRRRPPRLPRPRPRPHNSPRP | 0.0175 |
| RRIRMRPPRLPRPRPRPDSCPRP | -0.00101 |
| RRIRHRPPRLPRPRPRPYWMPRP | -1.63 |
| RRIRVRPPRLPRPRPRPWDAPRP | -0.0951 |
| RRIRGRPPRLPRPRPRPQSGPRP | 0.0868 |
| RRIRARPPRLPRPRPRPHCAPRP | 0.149 |

| Sequence | shrunken log2 fold change |
| --- | --- |
| RRIRMRPPRLPRPRPRPNYCPRP | -0.0723 |
| RRIRNRPPRLPRPRPRPPLYPRP | -0.101 |
| RRIRQRPPRLPRPRPRPADYPRP | -0.155 |
| RRIRRRPPRLPRPRPRPACGPRP | 0.429 |
| RRIRNRPPRLPRPRPRPLCLPRP | -0.311 |
| RRIRMRPPRLPRPRPRPMCRPRP | 0.0713 |
| RRIRVRPPRLPRPRPRPQNYPRP | -0.285 |
| RRIRLRPPRLPRPRPRPQRDPRP | 0.231 |
| RRIRGRPPRLPRPRPRPERVPRP | 0.397 |
| RRIRKRPPRLPRPRPRPIPYPRP | -0.303 |
| RRIRWRPPRLPRPRPRPTQYPRP | 0.0537 |
| RRIRCRPPRLPRPRPRPMDEPRP | 0.348 |
| RRIRERPPRLPRPRPRPAKSPRP | 0.0676 |
| RRIRMRPPRLPRPRPRPYDRPRP | 0.043 |
| RRIRKRPPRLPRPRPRPAWAPRP | 0.577 |
| RRIRRRPPRLPRPRPRPSFSPRP | -0.411 |
| RRIRERPPRLPRPRPRPIELPRP | -0.163 |
| RRIRFRPPRLPRPRPRPVGEPRP | 0.29 |
| RRIRHRPPRLPRPRPRPNQHPRP | -0.922 |
| RRIRPRPPRLPRPRPRPDHRPRP | -0.0495 |
| RRIRFRPPRLPRPRPRPPIYPRP | -0.416 |
| RRIRERPPRLPRPRPRPRTAPRP | 0.131 |
| RRIRSRPPRLPRPRPRPEYCPRP | 0.184 |
| RRIRTRPPRLPRPRPRPMTEPRP | -0.0359 |
| RRIRGRPPRLPRPRPRPTHWPRP | 0.629 |

| Sequence | shrunken log2 fold change |
| --- | --- |
| RRIRMRPPRLPRPRPRPPLAPRP | 1.48 |
| RRIRRRPPRLPRPRPRPPKYPRP | -0.14 |
| RRIRERPPRLPRPRPRPIMVPRP | -0.023 |
| RRIRNRPPRLPRPRPRPVIQPRP | 0.0549 |
| RRIRRRPPRLPRPRPRPNYNPRP | -0.556 |
| RRIRHRPPRLPRPRPRPYPRPRP | -0.27 |
| RRIRLRPPRLPRPRPRPANPPRP | -0.0638 |
| RRIRCRPPRLPRPRPRPLHGPRP | -0.089 |
| RRIRRRPPRLPRPRPRPMTQPRP | 0.176 |
| RRIRGRPPRLPRPRPRPTLGPRP | 0.936 |
| RRIRGRPPRLPRPRPRPQPMPRP | 0.412 |
| RRIRFRPPRLPRPRPRPVMYPRP | -0.195 |
| RRIRVRPPRLPRPRPRPRGCPRP | 0.374 |
| RRIRCRPPRLPRPRPRPWQTPRP | -0.0433 |
| RRIRQRPPRLPRPRPRPRLGPRP | 0.272 |
| RRIRIRPPRLPRPRPRPHHQPRP | -0.41 |
| RRIRLRPPRLPRPRPRPMINPRP | -0.224 |
| RRIRDRPPRLPRPRPRPSCVPRP | 0.282 |
| RRIRQRPPRLPRPRPRPYSMPRP | -0.031 |
| RRIRVRPPRLPRPRPRPTNAPRP | -0.211 |
| RRIRSRPPRLPRPRPRPHYEPRP | -0.573 |
| RRIRDRPPRLPRPRPRPYTPPRP | -0.95 |
| RRIRIRPPRLPRPRPRPPQGPRP | 0.123 |
| RRIRVRPPRLPRPRPRPDLLPRP | -0.224 |
| RRIRPRPPRLPRPRPRPYVLPRP | -0.519 |

| Sequence | shrunken log2 fold change |
| --- | --- |
| RRIRHRPPRLPRPRPRPWVYPRP | -0.125 |
| RRIRQRPPRLPRPRPRPKRHPRP | -0.0733 |
| RRIRLRPPRLPRPRPRPKQYPRP | -0.661 |
| RRIRPRPPRLPRPRPRPQCTPRP | -0.0867 |
| RRIRQRPPRLPRPRPRPPLGPRP | 0.547 |
| RRIRDRPPRLPRPRPRPDQKPRP | -0.0052 |
| RRIRHRPPRLPRPRPRPTWYPRP | -0.674 |
| RRIRYRPPRLPRPRPRPDADPRP | 0.00911 |
| RRIRMRPPRLPRPRPRPLCRPRP | 0.359 |
| RRIRRRPPRLPRPRPRPGLAPRP | 0.763 |
| RRIRIRPPRLPRPRPRPMFAPRP | -0.00719 |
| RRIRRRPPRLPRPRPRPRCNPRP | -0.223 |
| RRIRARPPRLPRPRPRPTNDPRP | 0.297 |
| RRIRNRPPRLPRPRPRPSFVPRP | -0.266 |
| RRIRHRPPRLPRPRPRPKWMPRP | -0.123 |
| RRIRPRPPRLPRPRPRPFLWPRP | 0.0275 |
| RRIRKRPPRLPRPRPRPPDNPRP | 0.0807 |
| RRIRFRPPRLPRPRPRPPDYPRP | -0.026 |
| RRIRSRPPRLPRPRPRPEEGPRP | 0.0515 |
| RRIRFRPPRLPRPRPRPSDSPRP | -0.21 |
| RRIRVRPPRLPRPRPRPTDNPRP | -0.363 |
| RRIRPRPPRLPRPRPRPHSKPRP | -0.14 |
| RRIRQRPPRLPRPRPRPAQAPRP | 0.0255 |
| RRIRWRPPRLPRPRPRPNMVPRP | -0.0148 |
| RRIRERPPRLPRPRPRPENAPRP | -0.00683 |

| Sequence | shrunken log2 fold change |
| --- | --- |
| RRIRARPPRLPRPRPRPLTGPRP | 0.172 |
| RRIRDRPPRLPRPRPRPFQCPRP | 0.00675 |
| RRIRLRPPRLPRPRPRPNFGPRP | 0.0635 |
| RRIRYRPPRLPRPRPRPKAQPRP | 0.35 |
| RRIRRRPPRLPRPRPRPPIAPRP | 0.385 |
| RRIRHRPPRLPRPRPRPNDSPRP | -0.072 |
| RRIRWRPPRLPRPRPRPMVTPRP | -0.072 |
| RRIRARPPRLPRPRPRPASMPRP | 0.301 |
| RRIRQRPPRLPRPRPRPIFKPRP | -0.208 |
| RRIRLRPPRLPRPRPRPEKMPRP | -0.35 |
| RRIRGRPPRLPRPRPRPFAEPRP | 2.46 |
| RRIRYRPPRLPRPRPRPQPHPRP | -0.348 |
| RRIRIRPPRLPRPRPRPGPSPRP | 0.108 |
| RRIRPRPPRLPRPRPRPLCTPRP | 1.09 |
| RRIRFRPPRLPRPRPRPTCRPRP | -0.0357 |
| RRIRKRPPRLPRPRPRPSNAPRP | -0.154 |
| RRIRVRPPRLPRPRPRPWTYPRP | -1.3 |
| RRIRSRPPRLPRPRPRPIKHPRP | -0.0703 |
| RRIRMRPPRLPRPRPRPVQWPRP | 0.155 |
| RRIRQRPPRLPRPRPRPELAPRP | 0.577 |
| RRIRQRPPRLPRPRPRPTARPRP | 0.219 |
| RRIRARPPRLPRPRPRPQEEPRP | 0.0293 |
| RRIRERPPRLPRPRPRPQVKPRP | -0.2 |
| RRIRYRPPRLPRPRPRPPKNPRP | -0.164 |
| RRIRYRPPRLPRPRPRPIYIPRP | -0.673 |
